Among the data in paper PMC8427654 are luciferase activity, fold over pcDNA3 transfection control values, retold here.

This assay concerns the target T1, split luciferase wild-type (WT) Apaf-1 (apoptotic protease activating factor-1), O14727.
T1 chain: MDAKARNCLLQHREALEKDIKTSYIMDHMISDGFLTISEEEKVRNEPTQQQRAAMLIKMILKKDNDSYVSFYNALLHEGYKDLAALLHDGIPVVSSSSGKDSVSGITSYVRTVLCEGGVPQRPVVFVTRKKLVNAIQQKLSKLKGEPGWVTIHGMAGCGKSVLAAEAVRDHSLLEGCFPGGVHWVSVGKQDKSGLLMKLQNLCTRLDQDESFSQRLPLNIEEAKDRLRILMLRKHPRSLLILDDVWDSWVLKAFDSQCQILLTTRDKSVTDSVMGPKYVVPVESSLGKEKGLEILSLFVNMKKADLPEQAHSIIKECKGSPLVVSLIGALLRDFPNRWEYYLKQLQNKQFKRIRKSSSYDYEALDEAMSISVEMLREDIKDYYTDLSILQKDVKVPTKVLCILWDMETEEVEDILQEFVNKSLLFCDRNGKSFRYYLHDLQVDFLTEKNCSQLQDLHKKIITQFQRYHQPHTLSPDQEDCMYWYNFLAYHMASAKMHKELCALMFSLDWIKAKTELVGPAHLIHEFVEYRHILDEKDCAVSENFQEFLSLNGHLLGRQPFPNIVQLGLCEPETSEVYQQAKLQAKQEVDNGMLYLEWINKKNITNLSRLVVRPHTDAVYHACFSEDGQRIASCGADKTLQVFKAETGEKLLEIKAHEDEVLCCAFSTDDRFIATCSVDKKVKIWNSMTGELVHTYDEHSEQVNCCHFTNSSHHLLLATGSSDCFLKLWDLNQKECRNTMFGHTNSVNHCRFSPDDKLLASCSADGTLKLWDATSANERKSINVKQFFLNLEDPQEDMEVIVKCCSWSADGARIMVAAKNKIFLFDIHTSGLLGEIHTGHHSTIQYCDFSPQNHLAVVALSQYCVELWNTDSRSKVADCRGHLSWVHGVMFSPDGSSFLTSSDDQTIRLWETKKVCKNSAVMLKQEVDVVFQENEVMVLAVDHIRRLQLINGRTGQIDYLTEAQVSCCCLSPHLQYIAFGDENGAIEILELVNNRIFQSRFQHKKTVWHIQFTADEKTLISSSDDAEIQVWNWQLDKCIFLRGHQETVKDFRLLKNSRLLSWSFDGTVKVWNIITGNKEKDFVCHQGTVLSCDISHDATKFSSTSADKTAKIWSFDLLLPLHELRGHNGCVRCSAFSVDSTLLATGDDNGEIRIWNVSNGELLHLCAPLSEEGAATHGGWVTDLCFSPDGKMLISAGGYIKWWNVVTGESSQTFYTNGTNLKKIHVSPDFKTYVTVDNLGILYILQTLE
Kind of assay: split reporter. The following applies: remark: other sources report otherwise.

B1: split luciferase wild-type (WT) Apaf-1 (apoptotic protease activating factor-1), O14727 1-1248 (natural protein)
chain: T1 chain
The molecule B1 registered a luciferase activity, fold over pcDNA3 transfection control of 32 fold.
